Test results from paper PMC3823766, “Paralogs hnRNP L and hnRNP LL Exhibit Overlapping but Distinct RNA Binding Constraints”.
Substitutions are numbered along the chain they refer to.

Assays:
Experiment in all cases: EMSA; EMSA: ~1 fmol 32P RNA (0.1 nM), 4.5% native PAGE; binding buffer as in cited ref 9, not given; BC50 values printed only in figures
GST-hnRNP L [1] = biological target: T1, GST-hnRNP L (UniProt P14866 1-589); settings: protein: recombinant; label: 32P-CTP body label
T1 sequence: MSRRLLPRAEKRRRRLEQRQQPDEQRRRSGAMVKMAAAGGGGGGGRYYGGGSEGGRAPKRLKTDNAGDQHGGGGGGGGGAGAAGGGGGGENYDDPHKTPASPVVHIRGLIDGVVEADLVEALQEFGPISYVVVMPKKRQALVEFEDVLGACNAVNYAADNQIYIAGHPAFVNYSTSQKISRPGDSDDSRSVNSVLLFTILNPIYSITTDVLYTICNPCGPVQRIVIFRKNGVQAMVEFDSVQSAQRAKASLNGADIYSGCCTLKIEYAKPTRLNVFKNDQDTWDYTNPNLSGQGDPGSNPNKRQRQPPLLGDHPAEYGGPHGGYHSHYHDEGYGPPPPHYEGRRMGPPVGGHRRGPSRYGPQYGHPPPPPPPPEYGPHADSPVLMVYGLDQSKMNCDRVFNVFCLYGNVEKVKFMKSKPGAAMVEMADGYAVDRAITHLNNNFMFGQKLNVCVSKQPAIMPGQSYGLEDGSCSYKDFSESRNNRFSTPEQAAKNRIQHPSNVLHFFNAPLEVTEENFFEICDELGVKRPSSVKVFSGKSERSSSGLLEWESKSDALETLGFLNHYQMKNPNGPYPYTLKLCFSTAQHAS

FLAG-hnRNP LL [2] = biological target: T2, FLAG-hnRNP LL (UniProt Q8WVV9 1-542); settings: protein: recombinant; tags: N-terminal FLAG; label: 32P-CTP body label
T2 sequence: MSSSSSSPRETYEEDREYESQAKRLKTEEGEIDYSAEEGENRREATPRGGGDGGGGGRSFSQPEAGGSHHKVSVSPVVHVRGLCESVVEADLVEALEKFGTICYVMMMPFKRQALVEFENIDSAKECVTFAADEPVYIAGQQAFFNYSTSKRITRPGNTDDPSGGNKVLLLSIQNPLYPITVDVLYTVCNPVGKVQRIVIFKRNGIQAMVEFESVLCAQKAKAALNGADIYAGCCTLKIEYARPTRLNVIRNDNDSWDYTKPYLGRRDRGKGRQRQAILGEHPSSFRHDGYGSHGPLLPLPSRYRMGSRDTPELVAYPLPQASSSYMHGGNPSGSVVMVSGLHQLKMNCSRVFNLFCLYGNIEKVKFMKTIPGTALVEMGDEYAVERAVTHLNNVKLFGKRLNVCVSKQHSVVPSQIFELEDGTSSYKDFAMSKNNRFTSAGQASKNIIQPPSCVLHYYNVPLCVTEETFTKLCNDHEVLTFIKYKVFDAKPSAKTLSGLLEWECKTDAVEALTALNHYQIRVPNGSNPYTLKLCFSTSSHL

FLAG-hnRNP LL [3] = biological target: T2, FLAG-hnRNP LL; settings: protein: recombinant; tags: N-terminal FLAG; label: 32P-CTP body label; remark: listed apart in the source
GST-hnRNP L [4] = biological target: T1, GST-hnRNP L; settings: protein: recombinant; label: 32P-CTP body label; remark: listed apart in the source
FLAG-hnRNP LL [5] = biological target: T2, FLAG-hnRNP LL; settings: protein: recombinant; tags: N-terminal FLAG; label: 32P-CTP body label; remark: listed apart in the source
GST-hnRNP L [6] = biological target: T1, GST-hnRNP L; settings: protein: recombinant; label: 32P-CTP body label; remark: listed apart in the source
FLAG-hnRNP LL [7] = biological target: T2, FLAG-hnRNP LL; settings: protein: recombinant; tags: N-terminal FLAG; label: 32P-CTP body label; remark: listed apart in the source

B1: CAuaCA (N=2) (ssRNA)
RNA: GAUCCUACAUACAUAGAUCUUACAUACAUAGAUCUUACAUACAUAGAUCUUACAUACAUAGAUCU
- binding result (GST-hnRNP L [1]): binds
- binding result (FLAG-hnRNP LL [2]): binds

B2: CACACA x4 (N=2 ca spacer) (ssRNA)
RNA: GAUCCUUCACACAUUAGAUCUUUCACACAUUAGAUCUUUCACACAUUAGAUCUUUCACACAUUAGAUCU
- binding result (GST-hnRNP L [1]): binds
- binding result (FLAG-hnRNP LL [2]): binds

B3: CAcCA (N=1) (ssRNA)
RNA: GAUCCUCACCACCAUAGAUCUUCACCACCAUAGAUCUUCACCACCAUAGAUCUUCACCACCAUAGAUCU
- binding signal (FLAG-hnRNP LL [3]): > 4 fold weaker than CACACA (at least)
- binding result (GST-hnRNP L [1]): binds

B4: CA spacer N=3 (ssRNA)
RNA: GAUCCUACAUUACAUAGAUCUUACAUUACAUAGAUCUUACAUUACAUAGAUCUUACAUUACAUAGAUCU
- binding result (GST-hnRNP L [1]): binds

B5: CAccCA (ssRNA)
RNA: GAUCCCCCACCCAAGAUCUCCCACCCAAGAUCUCCCACCCAAGAUCUCCCACCCAAGAUCU
- binding signal (GST-hnRNP L [4]): 15 fold weaker than CACACA
- binding signal (FLAG-hnRNP LL [5]): 5 fold weaker than CACACA

B6: ESS1 wild type (ssRNA)
RNA: CUUACCUACUCACACCACUGCAUUCUCACCCGCAAGCACC
- Kd (GST-hnRNP L [1]): ~2 nM
- Kd (FLAG-hnRNP LL [2]): ~2 nM

B7: ESS1 CA3 mutant (CA to GA) (ssRNA)
RNA: B6 RNA with C16G
- binding signal (GST-hnRNP L [6]): ~4 fold weaker than ESS1
- binding result (FLAG-hnRNP LL [2]): binds

B8: ESS1 CA4 mutant (CA to GA) (ssRNA)
RNA: B6 RNA with C21G
- binding signal (GST-hnRNP L [6]): ~2 fold weaker than ESS1
- binding result (FLAG-hnRNP LL [2]): binds

B9: ESS1 CA5 mutant (CA to GA) (ssRNA)
RNA: B6 RNA with C27G
- binding result (FLAG-hnRNP LL [2]): binds

B10: ESS1 CA1 mutant (CA to TA) (ssRNA)
RNA: B6 RNA with C11U
- binding result (FLAG-hnRNP LL [2]): binds

B11: ESS1 CA6 mutant (CA to GA) (ssRNA)
RNA: B6 RNA with C33G
- binding signal (GST-hnRNP L [6]): ~10 fold weaker than ESS1
- binding signal (FLAG-hnRNP LL [7]): > 5 fold weaker than ESS1

B12: ESS1 CA7 mutant (CA to TA) (ssRNA)
RNA: B6 RNA with C37U
- binding result (GST-hnRNP L [1]): binds
- binding signal (FLAG-hnRNP LL [7]): > 5 fold weaker than ESS1

B13: ESS1 CA2 mutant (CA to GA) (ssRNA)
RNA: B6 RNA with C13G
- binding signal (GST-hnRNP L [6]): ~2 fold weaker than ESS1
- binding result (FLAG-hnRNP LL [2]): binds
